Experimental data as given in publication PMC9896810, “Crk proteins activate the Rap1 guanine nucleotide exchange factor C3G by segregated adaptor-dependent and -independent mechanisms” (Cell Communication and Signaling : CCS, 2023).
Numbering of substitutions follows the chain as printed. Names and notes keep the numbering of the source. Each block holds one binder with its values, some of them ahead of it. No end group written: not given here. fluorescein = N-terminal fluorescein probe

Columns and labels:
[1] = target: T1, CrkL, full-length (human) (human, UniProt P46109 1-303); test: fluorescence polarisation; fluorescein peptides at 0.2 µM titrated with CrkL; 20 mM Tris-HCl, 150 mM NaCl, pH 7.5, 0.1 mg/ml BSA; 1:1 model; apparent kd; settings: both partners purified
T1 construct: Monomer by sedimentation velocity and DLS (theoretical mass 33.7 kDa); Purification 'in a similar manner' as C3G would include TEV cleavage of the tag; also called Crk-like protein; wild type CrkL; source: E. coli BL21 (DE3), purified (His-tagged, purified in a similar manner as C3G)

[2] = target: T2, C3G (full-length, residues 4-1077) (human, UniProt Q13905-1 4-1077); test: ITC; C3G or pC3G in the cell titrated with the Crk protein, 25 °C, 300 mM NaCl, pH 7.5; global fit of three titrations with SEDPHAT, three symmetric binding sites, microscopic kd; settings: both partners purified
T2 construct: also called C3G WT; RapGEF1; source: E. coli BL21 (DE3), purified (IMAC, TEV digestion, reversed IMAC, SEC); not shown: His, N-terminal, cleaved; Halo, N-terminal, cleaved
T2 sequence (looked up): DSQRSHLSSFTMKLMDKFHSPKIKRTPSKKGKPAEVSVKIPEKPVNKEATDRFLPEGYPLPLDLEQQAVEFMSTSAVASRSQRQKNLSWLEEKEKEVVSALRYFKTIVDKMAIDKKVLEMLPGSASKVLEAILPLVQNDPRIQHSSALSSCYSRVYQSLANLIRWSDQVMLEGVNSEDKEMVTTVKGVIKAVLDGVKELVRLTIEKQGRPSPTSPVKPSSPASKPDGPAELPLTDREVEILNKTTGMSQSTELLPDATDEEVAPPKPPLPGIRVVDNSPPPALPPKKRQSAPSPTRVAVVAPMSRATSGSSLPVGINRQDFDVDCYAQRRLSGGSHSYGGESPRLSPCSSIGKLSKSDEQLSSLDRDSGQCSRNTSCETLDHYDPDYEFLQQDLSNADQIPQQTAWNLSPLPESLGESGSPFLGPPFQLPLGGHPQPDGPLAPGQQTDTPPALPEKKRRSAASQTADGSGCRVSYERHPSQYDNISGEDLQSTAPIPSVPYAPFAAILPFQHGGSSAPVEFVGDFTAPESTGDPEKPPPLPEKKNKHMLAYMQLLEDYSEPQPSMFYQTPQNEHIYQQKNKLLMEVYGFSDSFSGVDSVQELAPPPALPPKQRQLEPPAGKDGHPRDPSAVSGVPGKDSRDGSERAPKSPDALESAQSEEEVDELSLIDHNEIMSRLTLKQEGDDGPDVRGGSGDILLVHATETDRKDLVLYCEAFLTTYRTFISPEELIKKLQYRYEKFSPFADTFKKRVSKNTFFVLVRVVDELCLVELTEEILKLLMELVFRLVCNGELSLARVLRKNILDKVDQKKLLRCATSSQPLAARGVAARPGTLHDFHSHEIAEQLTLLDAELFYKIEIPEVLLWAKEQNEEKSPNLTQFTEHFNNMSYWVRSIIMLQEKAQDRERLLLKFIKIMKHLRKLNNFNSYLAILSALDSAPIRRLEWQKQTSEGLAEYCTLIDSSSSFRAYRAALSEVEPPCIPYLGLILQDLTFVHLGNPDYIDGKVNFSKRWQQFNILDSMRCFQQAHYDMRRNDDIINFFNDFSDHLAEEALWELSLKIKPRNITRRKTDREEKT

[3] = target: T3, C3G full-length wild type (human, isoform a, residues 4-1077) (human, UniProt Q13905-1 4-1077); test: cell-based or functional assay
T3 sequence (looked up): T2 sequence (looked up)

[4] = target: T4, Src-phosphorylated C3G (pC3G), wild type (human, UniProt Q13905-1 4-1077, phosphotyrosines (phosphorylated in vitro by Src; sites not stated)); test: cell-based or functional assay
T4 sequence (looked up): T2 sequence (looked up)

[5] = target: T1, CrkL, full-length (human); test: ITC; single-PRM mutants of C3G in the cell titrated with full-length CrkL or CrkL-SH3N; 25 °C; 1:1 model in SEDPHAT; N is the competent fraction of C3G; settings: both partners purified
CrkL-W160S = target: T5, CrkL-W160S (human, UniProt P46109 1-303, W160S); test: fluorescence polarisation; fluorescein-labelled peptide at 0.2 µM titrated with CrkL or CrkL W160S; 20 mM Tris-HCl, 150 mM NaCl, pH 7.5, 0.1 mg/ml BSA; 1:1 binding model; apparent kd; settings: both partners purified
T5 construct: human CrkL, residues 1-303, point mutant W160S, in pETEV15b; source: E. coli BL21 (DE3), purified (IMAC, TEV digestion, SEC); not shown: His, N-terminal, cleaved

CrkL (full-length) = target: T6, CrkL (full-length) (human, UniProt P46109 1-303); test: as above; settings: both partners purified
T6 construct: human CrkL, residues 1-303, in pETEV15b; also called Crk-like protein; source: E. coli BL21 (DE3), purified (IMAC, TEV digestion, SEC); not shown: His, N-terminal, cleaved
T6 sequence (P46109 whole entry, the tested form may be a part): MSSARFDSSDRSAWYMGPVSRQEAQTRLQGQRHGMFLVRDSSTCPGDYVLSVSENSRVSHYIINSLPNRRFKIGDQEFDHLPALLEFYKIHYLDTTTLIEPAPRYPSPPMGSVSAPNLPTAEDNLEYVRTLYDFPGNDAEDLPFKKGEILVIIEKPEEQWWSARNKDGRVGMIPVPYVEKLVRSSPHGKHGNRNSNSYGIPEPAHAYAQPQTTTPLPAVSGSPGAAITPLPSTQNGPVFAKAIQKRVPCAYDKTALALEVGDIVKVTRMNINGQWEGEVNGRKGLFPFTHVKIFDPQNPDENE

T5 sequence (P46109 whole entry W160S, the tested form may be a part): as the sequence (P46109 whole entry, the tested form may be a part) above, with W160S counted along it

B2: CrkII (full-length) (natural protein, human, UniProt P46108-1 1-304, looked up)
chain: MAGNFDSEERSSWYWGRLSRQEAVALLQGQRHGVFLVRDSSTSPGDYVLSVSENSRVSHYIINSSGPRPPVPPSPAQPPPGVSPSRLRIGDQEFDSLPALLEFYKIHYLDTTTLIEPVSRSRQGSGVILRQEEAEYVRALFDFNGNDEEDLPFKKGDILRIRDKPEEQWWNAEDSEGKRGMIPVPYVEKYRPASASVSALIGGNQEGSHPQPLGGPEPGPYAQPSVNTPLPNLQNGPIYARVIQKRVPNAYDKTALALEVGELVKVTKINVSGQWEGECNGKRGHFPFTHVRLLDQQNPDEDFS
notes: human CrkII, residues 1-304, in pETEV15b; source: E. coli BL21 (DE3), purified (IMAC, TEV digestion, SEC); not shown: His, N-terminal, cleaved
Kd [2]: 2.7 µM

B6: C3G-PAAA (natural protein)
chain: DSQRSHLSSFTMKLMDKFHSPKIKRTPSKKGKPAEVSVKIPEKPVNKEATDRFLPEGYPLPLDLEQQAVEFMSTSAVASRSQRQKNLSWLEEKEKEVVSALRYFKTIVDKMAIDKKVLEMLPGSASKVLEAILPLVQNDPRIQHSSALSSCYSRVYQSLANLIRWSDQVMLEGVNSEDKEMVTTVKGVIKAVLDGVKELVRLTIEKQGRPSPTSPVKPSSPASKPDGPAELPLTDREVEILNKTTGMSQSTELLPDATDEEVAPPKPPLPGIRVVDNSPPPALPPKKRQSAPSPTRVAVVAPMSRATSGSSLPVGINRQDFDVDCYAQRRLSGGSHSYGGESPRLSPCSSIGKLSKSDEQLSSLDRDSGQCSRNTSCETLDHYDPDYEFLQQDLSNADQIPQQTAWNLSPLPESLGESGSPFLGPPFQLPLGGHPQPDGPLAPGQQTDTAAAAAEAKRRSAASQTADGSGCRVSYERHPSQYDNISGEDLQSTAPIPSVPYAPFAAILPFQHGGSSAPVEFVGDFTAPESTGDPEKAAPAAEAKNKHMLAYMQLLEDYSEPQPSMFYQTPQNEHIYQQKNKLLMEVYGFSDSFSGVDSVQELAPAAAAAPAQRQLEPPAGKDGHPRDPSAVSGVPGKDSRDGSERAPKSPDALESAQSEEEVDELSLIDHNEIMSRLTLKQEGDDGPDVRGGSGDILLVHATETDRKDLVLYCEAFLTTYRTFISPEELIKKLQYRYEKFSPFADTFKKRVSKNTFFVLVRVVDELCLVELTEEILKLLMELVFRLVCNGELSLARVLRKNILDKVDQKKLLRCATSSQPLAARGVAARPGTLHDFHSHEIAEQLTLLDAELFYKIEIPEVLLWAKEQNEEKSPNLTQFTEHFNNMSYWVRSIIMLQEKAQDRERLLLKFIKIMKHLRKLNNFNSYLAILSALDSAPIRRLEWQKQTSEGLAEYCTLIDSSSSFRAYRAALSEVEPPCIPYLGLILQDLTFVHLGNPDYIDGKVNFSKRWQQFNILDSMRCFQQAHYDMRRNDDIINFFNDFSDHLAEEALWELSLKIKPRNITRRKTDREEKT
Kd [5]: ~1 µM

B7: C3G-APAA (natural protein)
chain: B6 chain with P280A, P281A, L283A, P284A, K286A, A450P, A451P, A453L, A454P, A456K
Kd [5]: ~1 µM

B8: P1 (Fluo-280-293) (peptide)
peptide: fluorescein-NGPPPALPPKKRQS
notes: P1 Pro-rich motif of human C3G, residues 280-293; also called P1 peptide of C3G; source: synthetic peptide (custom synthesized, Thermo Scientific)
Kd (CrkL-W160S): ~490 µM
Kd (CrkL (full-length)): 1.4 µM

B9: P4 (Fluo-605-618) (peptide)
peptide: fluorescein-LAPPPALPPKQRQL
notes: P4 Pro-rich motif of human C3G, residues 605-618; also called P4 peptide of C3G; source: synthetic peptide (custom synthesized, Thermo Scientific)
Kd (CrkL-W160S): ~415 µM
Kd (CrkL (full-length)): 3 µM

B10: P3 (Fluo-537-550) (peptide)
peptide: fluorescein-PEKPPPLPEKKNKH
notes: P3 Pro-rich motif of human C3G, residues 537-550; also called P3 peptide of C3G; source: synthetic peptide (custom synthesized, Thermo Scientific)
Kd (CrkL-W160S): ~425 µM
Kd (CrkL (full-length)): 2.2 µM

B11: P2 (Fluo-450-463) (peptide)
peptide: fluorescein-TDTPPALPEKKRRS
notes: P2 Pro-rich motif of human C3G, residues 450-463; also called P2 peptide of C3G; source: synthetic peptide (custom synthesized, Thermo Scientific)
Kd (CrkL-W160S): > 4000 µM
Kd (CrkL (full-length)): 2.2 µM

Now from value to binder:

binding result [1]: binds
B1: C3G P1 peptide (residues 280-293), fluorescein-labeled (peptide, UniProt Q13905-1 280-293, looked up)
peptide: fluorescein-NSPPPALPPKKRQS
notes: Pro-rich motif P1 of human C3G, residues 280-293; source: synthetic peptide (custom synthesized, Thermo Scientific)

AC50 of the dose-response activation of the GEF activity of C3G (1 µM) on Rap1b:mant-dGDP [3]: 65.7 µM
kmax of the dose-response activation of the GEF activity of C3G (1 µM) on Rap1b:mant-dGDP [3]: 7200 M⁻¹ s⁻¹
AC50 of the dose-response activation of the GEF activity of pC3G (0.2 µM) on Rap1b:mant-dGDP [4]: 2.6 µM
kmax of the dose-response activation of the GEF activity of pC3G (0.2 µM) on Rap1b:mant-dGDP [4]: 0.0223 s^-1 µM^-1
B3: CrkII (human) (natural protein, UniProt P46108-1 1-304, looked up)
chain: B2 chain

Kd [2]: 1.1 µM
B4: CrkL-SH3N-SH3C (domain or fragment, human, UniProt P46109 125-303, looked up)
chain: LEYVRTLYDFPGNDAEDLPFKKGEILVIIEKPEEQWWSARNKDGRVGMIPVPYVEKLVRSSPHGKHGNRNSNSYGIPEPAHAYAQPQTTTPLPAVSGSPGAAITPLPSTQNGPVFAKAIQKRVPCAYDKTALALEVGDIVKVTRMNINGQWEGEVNGRKGLFPFTHVKIFDPQNPDENE
notes: human CrkL, SH3N-SH3C, residues 125-303, in pETEV15b; source: E. coli BL21 (DE3), purified (IMAC, TEV digestion, SEC); not shown: His, N-terminal, cleaved

AC50 of the dose-response activation of the GEF activity of C3G (1 µM) on Rap1b:mant-dGDP [3]: 19.8 µM
kmax of the dose-response activation of the GEF activity of C3G (1 µM) on Rap1b:mant-dGDP [3]: 12900 M⁻¹ s⁻¹
AC50 of the dose-response activation of the GEF activity of pC3G (0.2 µM) on Rap1b:mant-dGDP [4]: 4.5 µM
kmax of the dose-response activation of the GEF activity of pC3G (0.2 µM) on Rap1b:mant-dGDP [4]: 0.0134 s^-1 µM^-1
B5: CrkL-SH3N-SH3C (residues 125-303) (domain or fragment, human, UniProt P46109 125-303, looked up)
chain: B4 chain

Kd [2]: 2.2 µM
B12: CrkL-SH2-SH3N (domain or fragment, human, UniProt P46109 1-182, looked up)
chain: MSSARFDSSDRSAWYMGPVSRQEAQTRLQGQRHGMFLVRDSSTCPGDYVLSVSENSRVSHYIINSLPNRRFKIGDQEFDHLPALLEFYKIHYLDTTTLIEPAPRYPSPPMGSVSAPNLPTAEDNLEYVRTLYDFPGNDAEDLPFKKGEILVIIEKPEEQWWSARNKDGRVGMIPVPYVEKLV
notes: human CrkL, SH2-SH3N, residues 1-182, in pETEV15b; also called CrkL-SH2N-SH3N; source: E. coli BL21 (DE3), purified (IMAC, TEV digestion, SEC); not shown: His, N-terminal, cleaved

AC50 of the dose-response activation of the GEF activity of C3G (1 µM) on Rap1b:mant-dGDP [3]: 15.8 µM
kmax of the dose-response activation of the GEF activity of C3G (1 µM) on Rap1b:mant-dGDP [3]: 8400 M⁻¹ s⁻¹
AC50 of the dose-response activation of the GEF activity of pC3G (0.2 µM) on Rap1b:mant-dGDP [4]: 4.9 µM
kmax of the dose-response activation of the GEF activity of pC3G (0.2 µM) on Rap1b:mant-dGDP [4]: 0.0377 s^-1 µM^-1
B13: CrkL-SH2-SH3N (residues 1-182) (domain or fragment, human, UniProt P46109 1-182, looked up)
chain: B12 chain
